The nanobody polyreactivity screen of Harvey et al. (2022)

Experiment: yeast display, Sf9 membrane polyspecificity reagent, FACS + sequencing; frameworks hold sequencing errors
Outline: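 Nanobodies came from a synthetic yeast display library in Saccharomyces cerevisiae BJ5465, induced with galactose for 36–48 hours and stained for 1 hour at 4 °C with 10% biotinylated, detergent-solubilized Sf9 membrane reagent. Cells were enriched on streptavidin microbeads and then FACS-sorted, with low and high (top ~1%) gates set on anti-HA fluorescence for expression and streptavidin fluorescence for reagent binding. Each polyreactivity label reflects the gate a clone came from. Genes were amplified by colony PCR, sequenced by MiSeq 2 × 250 and filtered by CDR length.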

**Q.** Which “polyreactivity (PSR sort gate)” value does the source give for “QVQLVESGGGLVQAGGSLRLSCAASGSTFWKYAMGWYRQAPGKERELVASIRSGGSTYYADSVKGRFTISRDNAKNTVYLQMNSLKPEDTAVYYCAAKSISVGGGVYGYRYYYWGQGTQVTVSS” here?
**A.** high polyreactivity

**Q.** Which “polyreactivity (PSR sort gate)” value does the source give for “QVQLVESGGGLVQAGGSLRLSCAASGSTFWKYIMGWYRQAPGKERELVAAITTRGGSTYADSVKGRFTISRDNAKNTVYLQMNSLKPEDTAVYYWAATKFWYYGYDYWGQGTQVTVSS” here?
**A.** low polyreactivity

**Q.** Which “polyreactivity (PSR sort gate)” value does the source give for “QVQLVESGGGLVQAGGSLRLSCAASGSTFWPYAMGWSRQAPGKERELVARINSGGNTNYADSVKGRFTISRDNAKNTVYLQMNSLKPEDTAVYYCAVRSLYEPRVYYRWVVVDGNYLGQGTQVTVSS” here?
**A.** low polyreactivity

**Q.** Which “polyreactivity (PSR sort gate)” value does the source give for “QVQLVESGGGLVQAGGSLRLSCAASGSTFWPYAMGWYRQAPGKERELVAAINYSSGSTYYADSVKGRFTISRDNAKNTVYLQMNSLKPEDNAVYYCAKGWYAGYPYDYWGQGTQVTVSS” here?
**A.** low polyreactivity

**Q.** For “QVQLVESGGGLVQAGGSLRLSCAASGSTFWPYAMGWYRQAPGKERELVAAITSSGGSTYYADSVKGRFTISRDNAKNTVYLQRNSLKPEDTAVYYCAADWSNLGAYDYWGQGTQVTVSS”, which “polyreactivity (PSR sort gate)” value is on record?
**A.** low polyreactivity

**Q.** With “QVQLVESGGGLVQAGGSLRLSCAASGSTFWSNTMGWYRQAPGKERELVASITTSGGRTYYADSVKGRFTISRDNAKNTVYLQMNSLKPEDTAVYYCAAGGRVRRRYGYWGQGTQVTVSS” as the sequence, how does the “polyreactivity (PSR sort gate)” value read?
**A.** high polyreactivity

**Q.** With “QVQLVESGGGLVQAGGSLRLSCAASGSTFWSYAMGWSRQAPGKERELVAAITDSGGSTYYADSVKGRFTISRDNAKNTVYLQLNSLKPEDTAVYYCAVDSRYTAPLRPLGPFDYWGQGTQVTVSS” as the sequence, how does the “polyreactivity (PSR sort gate)” value read?
**A.** low polyreactivity

**Q.** Which “polyreactivity (PSR sort gate)” value does the source give for “QVQLVESGGGLVQAGGSLRLSCAASGSTFWSYAMGWYRQATGKERELVAAITSGGRTYYADSVKGRFTISRDNAKNTVYLQMNCLKAEDTAVYYCAAEGSVGLYGMIMHYWGQGTQVTVSS” here?
**A.** high polyreactivity

**Q.** Which “polyreactivity (PSR sort gate)” value does the source give for “QVQLVESGGGLVQAGGSLRLSCAASGSTFWTNAMAWYRQSPGKERELVATITYSTGTYADSVKGRFTISRDNAKNTVYLQMNSLKPEDTAVYYCAAEVVAQMNYWGQGTQVTVSS” here?
**A.** low polyreactivity

**Q.** Which “polyreactivity (PSR sort gate)” value does the source give for “QVQLVESGGGLVQAGGSLRLSCAASGSTFWTNAMGWYRQAPGKERELVAVISRGGSTNYADSVKGRFTISRDNAKNTVYLQMNSLKPEDTAVYYCAAASYLYGRYYYWGQGTQVTVSS” here?
**A.** high polyreactivity

**Q.** Which “polyreactivity (PSR sort gate)” value does the source give for “QVQLVESGGGLVQAGGSLRLSCAASGSTFWVNVMGWYRQAPGKERELVATITSGGRTNYADSVKGRFTISRDNAKNTVYLQMNSLKPADTAVYDCAADLKRGDLMDYWGQGTQVTVSS” here?
**A.** low polyreactivity

**Q.** With “QVQLVESGGGLVQAGGSLRLSCAASGSTFWVYAMGWYRQAPGKERELVATISRGGSTNYADSVKGRFTISRDNAKNTVYLQMNSLKPEDTAVYYCAAPRFYGYGYEYWGQGTQVTVSS” as the sequence, how does the “polyreactivity (PSR sort gate)” value read?
**A.** low polyreactivity

**Q.** For “QVQLVESGGGLVQAGGSLRLSCAASGSTFWVYTMGWYRQAPGKERELVAAISYGGGRTYYADSVKGRFTISRDNEKNTVYLQMNSLKPEDTAVYYCNKDYWRDVAQDVLDGYEYWGQGTQVTVSS”, which “polyreactivity (PSR sort gate)” value is on record?
**A.** low polyreactivity

**Q.** Which “polyreactivity (PSR sort gate)” value does the source give for “QVQLVESGGGLVQAGGSLRLSCAASGSTFWVYTMGWYRQAPGKERELVAAITLNGGSTYYADSVKGRFTISRDNAKNTVYLQMNSLKPEDTAVYYCAAYVFPFDKSYHYVGYDYWGQGTQVTVSS” here?
**A.** low polyreactivity

**Q.** For “QVQLVESGGGLVQAGGSLRLSCAASGSTFWWYAMGWYRQAPGKDRELVAASSYSGSSTYYADSVKGRFTISRDNAKNTVYLQMNSLKPEDTAVYYCAADIQYYYNYYPGDYWGQGTQVTVSS”, which “polyreactivity (PSR sort gate)” value is on record?
**A.** low polyreactivity

**Q.** For “QVQLVESGGGLVQAGGSLRLSCAASGSTFWWYAMGWYRQAPGKEREFVAAINWRGSSTYYADSVKGRFTISRDNAKNTVYLQMNSLKPEDTSVYYCNAVLRYGYAGMDYWGQGTQVTVSS”, which “polyreactivity (PSR sort gate)” value is on record?
**A.** high polyreactivity

**Q.** For “QVQLVESGGGLVQAGGSLRLSCAASGSTFWYNAMGWYRQAPGKEREFVASISFRSGRTYYADSVKGRFTISRDNAKNTVYLQMNSLKPEDTAVYYCAADYYQYKYDYWGQGTQVTVSS”, which “polyreactivity (PSR sort gate)” value is on record?
**A.** high polyreactivity

**Q.** With “QVQLVESGGGLVQAGGSLRLSCAASGSTFWYNAMGWYRQAPGKERELVASITLSGARTYYADSVKGRFTISRDNAKNTVYLQMNSLKPEDTAVYYCAKRTGRVKYYYWGQGTQVTVSS” as the sequence, how does the “polyreactivity (PSR sort gate)” value read?
**A.** high polyreactivity

**Q.** With “QVQLVESGGGLVQAGGSLRLSCAASGSTFWYNAMGWYRQAPGTERELVATITNSGGSTYYADSVKGRFTISRDNAKNTVYLQMNSLKPEDTAVYYCATDVYSGALLKYDYWGQGTQVTVSS” as the sequence, how does the “polyreactivity (PSR sort gate)” value read?
**A.** low polyreactivity

**Q.** For “QVQLVESGGGLVQAGGSLRLSCAASGSTFWYYAMAWYRHAPGKEREMVAAINSDDSTNYADSVKGRFTISRDNAKNTDYLQMNSLKPEDTAVYDCHRGFVYSTTGLWRYYDFDYWGQGTQVTLSS”, which “polyreactivity (PSR sort gate)” value is on record?
**A.** low polyreactivity

**Q.** For “QVQLVESGGGLVQAGGSLRLSCAASGSTFWYYAMGWYRQAPGKEREFVAAITTSAGRTYYADSVKGRFTISRDNAKNSVYLQMNSLKPEDTAVYYCAAEPRQYWEYNYWGQGTQVTVSS”, which “polyreactivity (PSR sort gate)” value is on record?
**A.** high polyreactivity

**Q.** For “QVQLVESGGGLVQAGGSLRLSCAASGSTFWYYAMGWYRQAPGKERELVAAISRSTGSTYYADSVKGRFTISRDNAKNTVYLQMNSLKPEDTAVYYCNKDPVPSFFIPEIGYSEYDYWGQGTQVTVSS”, which “polyreactivity (PSR sort gate)” value is on record?
**A.** low polyreactivity

**Q.** With “QVQLVESGGGLVQAGGSLRLSCAASGSTFWYYAMGWYRQAPGKERQLVAAISRNGVSTYYADSVKGRFTISRDIAKNTVYLQMNSMKPEDTAVYYCNVVTKFTGRGYDYWGQGTQVTVSS” as the sequence, how does the “polyreactivity (PSR sort gate)” value read?
**A.** high polyreactivity

**Q.** With “QVQLVESGGGLVQAGGSLRLSCAASGSTFWYYTMGWYRQAPGKERELVAAITESGGGTYYADSVKGRFTISRDNAKNTVYLQMNSLKPEDTAVYYCAAYSRFTSDYWGQGTQVTVSS” as the sequence, how does the “polyreactivity (PSR sort gate)” value read?
**A.** high polyreactivity

**Q.** Which “polyreactivity (PSR sort gate)” value does the source give for “QVQLVESGGGLVQAGGSLRLSCAASGSTFYANAMGWYRQAPGKEREFVADITISGGRTYYADSVKGRFTISRDNAKNTVYLQMNSLKPEDTAVYYWNTRGIFFQSQTHDYWGQGTQVTVSS” here?
**A.** low polyreactivity

**Q.** With “QVQLVESGGGLVQAGGSLRLSCAASGSTFYANAMGWYRQAPGKERELVAAIDSGGTTTYADSVKGRFTISRDNAKNTVYLQMNSLKPEDTAVYYCAADQYWYIWYDYWGQGTQVTVSS” as the sequence, how does the “polyreactivity (PSR sort gate)” value read?
**A.** low polyreactivity

**Q.** For “QVQLVESGGGLVQAGGSLRLSCAASGSTFYAYTMGWYRQAPGKERELVAAITSSGSNTYYADSVKGRFTISRDNAKNTVYLQMNSLKPEDTAVYYCAARITREGYYWGQGTQVTVSS”, which “polyreactivity (PSR sort gate)” value is on record?
**A.** high polyreactivity

**Q.** For “QVQLVESGGGLVQAGGSLRLSCAASGSTFYDSAMGWYRQAPGKERELVAAINWSSDTTYYADSVKGRFTISRDNAKNTVYLQMNSLKPEDTAVYYCATDSAYRGYDYWGQGTQVNVSS”, which “polyreactivity (PSR sort gate)” value is on record?
**A.** low polyreactivity

**Q.** With “QVQLVESGGGLVQAGGSLRLSCAASGSTFYDYVMGWYRQAPGKERELVAAITGSGGRTYYADSVKGRFTISRDNAKNTVYLQMNSLKPEDTAVYYCAVRVHYNRVYGRYSPRYDYWGQGTQVTVSS” as the sequence, how does the “polyreactivity (PSR sort gate)” value read?
**A.** high polyreactivity

**Q.** Which “polyreactivity (PSR sort gate)” value does the source give for “QVQLVESGGGLVQAGGSLRLSCAASGSTFYENTMGWYRQAPGKERELVAAISVRGGSTYYADSVKGRFTISRDNEKKTVYLQMNRLKPEDTAVYYCAVLDVYRYRMDYSGQGTQVTVSS” here?
**A.** low polyreactivity

**Q.** For “QVQLVESGGGLVQAGGSLRLSCAASGSTFYFYAMGWYRPAPGKERELVAAITYSGGSTYYADSVKGRFTISRDNAKNTVYLQMNSLKPEDTAVYYCAAQWRRHSTRSRYYYWGQGSQVTVSS”, which “polyreactivity (PSR sort gate)” value is on record?
**A.** high polyreactivity

**Q.** Which “polyreactivity (PSR sort gate)” value does the source give for “QVQLVESGGGLVQAGGSLRLSCAASGSTFYFYDMGWYRQAPGKERELVATIDDGGGSTYYADSVKGRFTISRDNAKNTVYLQMNSLKPEDTAVYYCNADDSEYLIYDYWGQGTQVTVSS” here?
**A.** low polyreactivity

**Q.** With “QVQLVESGGGLVQAGGSLRLSCAASGSTFYGNAMGWYRQAPGKERELVATIDSTAGTNYADSVKGRFTISRDNAKNTVYLQMNSLKPEDTAVYYCAREYSIYNPPGYLGTVEYDYWGQGTQVTVSS” as the sequence, how does the “polyreactivity (PSR sort gate)” value read?
**A.** low polyreactivity

**Q.** Which “polyreactivity (PSR sort gate)” value does the source give for “QVQLVESGGGLVQAGGSLRLSCAASGSTFYGNAMGWYRQAPGKERELVATISWSGGSTYYADSVKGRFTISRDNAKNTVYLQMNSLKPEDTAVYYCNAEITTKSLVTRYSWYGGDYWGQGTQVTVSS” here?
**A.** low polyreactivity

**Q.** With “QVQLVESGGGLVQAGGSLRLSCAASGSTFYGYALGWYRQAPGKERELVAAITRSGGSTYYADSVKGRFTISRDNAKNTVYLQMNSLKPEDTEVYYCNKYGYKGGVGYDYWGQGTQVTVSS” as the sequence, how does the “polyreactivity (PSR sort gate)” value read?
**A.** high polyreactivity

**Q.** For “QVQLVESGGGLVQAGGSLRLSCAASGSTFYGYAMGWYRQAPGKERELVAAINWSGGRTYYADSVKGRFTISRDNAKNTVYLQMNSLKPEDTAVYYCAARGRYQPQFDYWGQGTQVTVSS”, which “polyreactivity (PSR sort gate)” value is on record?
**A.** high polyreactivity

**Q.** Which “polyreactivity (PSR sort gate)” value does the source give for “QVQLVESGGGLVQAGGSLRLSCAASGSTFYHNVMGWYRQAPGKERELVASIYRGGSTYYADSVKGRFTISRDNAKNTVYLQMNSLKPEDTAVYYCAKEYKSLWWDGRMNYWGQGTQVTVSS” here?
**A.** low polyreactivity

**Q.** Which “polyreactivity (PSR sort gate)” value does the source give for “QVQLVESGGGLVQAGGSLRLSCAASGSTFYHYAMGWYRKAPGKERELVAAISTSGGRTYYADSVKGRFTISRDNAKNTVYLQLNSLKPEDTAVYYCAARPGSWFPSVPSYNYWGQGTQVTVSS” here?
**A.** low polyreactivity

**Q.** With “QVQLVESGGGLVQAGGSLRLSCAASGSTFYHYAMGWYRQAPGKERELVAAISTSGGRTYYADSVKGRFTISRDNAKNTVYLQMNSLKPEDTAVYYCAARPGSWYPSVPSYNYWGQGTQVTVSS” as the sequence, how does the “polyreactivity (PSR sort gate)” value read?
**A.** low polyreactivity

**Q.** For “QVQLVESGGGLVQAGGSLRLSCAASGSTFYINAMGWYRQAPGKERELVAAITSGGSTNYADSVKGRFTISRDNAKNTVYLQMNSLKPEDTAVYYCAKVSYYPWRYDYWGQGTQVTVSS”, which “polyreactivity (PSR sort gate)” value is on record?
**A.** low polyreactivity

**Q.** With “QVQLVESGGGLVQAGGSLRLSCAASGSTFYINDMGWYRQAPGKERELVASISWRGGSTYADSVKGRFTISRDNAKNTDYLQMNSLKPEDTAVYYCAAEFDVYSHHWITSYDYWGQGTQVTVSS” as the sequence, how does the “polyreactivity (PSR sort gate)” value read?
**A.** high polyreactivity
